# In paper PMC9278869:
# Biological target: Flag-ACKR3-RlucII (human) (UniProt P25106)
# Details: scale: log EC50
# Flag-ACKR3-RlucII (human), sequence (P25106 whole entry): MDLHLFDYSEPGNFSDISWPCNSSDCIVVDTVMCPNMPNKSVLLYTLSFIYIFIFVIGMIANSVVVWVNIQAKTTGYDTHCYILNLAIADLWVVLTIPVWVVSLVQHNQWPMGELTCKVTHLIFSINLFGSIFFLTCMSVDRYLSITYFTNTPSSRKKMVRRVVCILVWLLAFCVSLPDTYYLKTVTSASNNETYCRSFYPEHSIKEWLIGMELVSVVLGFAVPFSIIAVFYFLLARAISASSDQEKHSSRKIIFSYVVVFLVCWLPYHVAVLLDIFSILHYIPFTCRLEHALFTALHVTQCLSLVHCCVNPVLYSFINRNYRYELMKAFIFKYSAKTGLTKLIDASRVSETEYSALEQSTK
substance,measurement,value
wild-type CXCL12 (CXCL12WT) (from UniProt P48061 22-93) (ligand),"log EC50 of GFP10–β-arrestin 2 recruitment to ACKR3-RlucII (BRET) as a function of CXCL12WT, with 2 μM CID25",-8.89
same,"log EC50 of GFP10–β-arrestin 2 recruitment to ACKR3-RlucII (BRET) as a function of CXCL12WT, without CID25",-8.87
